For the test, the target named is T1, mouse ADAMTS7 (Mus musculus, UniProt Q68SA9).
T1 construct: Full-length mouse Adamts7 1-1857 (Uniprot Q68SA9, WT or E373Q catalytic mutant); expressed in transfected cells; host or cells: Human Coronary Artery Smooth Muscle Cells (HCA-SMC, Lonza), adenovirus 50 MOI
T1 sequence (Q68SA9 221-1657): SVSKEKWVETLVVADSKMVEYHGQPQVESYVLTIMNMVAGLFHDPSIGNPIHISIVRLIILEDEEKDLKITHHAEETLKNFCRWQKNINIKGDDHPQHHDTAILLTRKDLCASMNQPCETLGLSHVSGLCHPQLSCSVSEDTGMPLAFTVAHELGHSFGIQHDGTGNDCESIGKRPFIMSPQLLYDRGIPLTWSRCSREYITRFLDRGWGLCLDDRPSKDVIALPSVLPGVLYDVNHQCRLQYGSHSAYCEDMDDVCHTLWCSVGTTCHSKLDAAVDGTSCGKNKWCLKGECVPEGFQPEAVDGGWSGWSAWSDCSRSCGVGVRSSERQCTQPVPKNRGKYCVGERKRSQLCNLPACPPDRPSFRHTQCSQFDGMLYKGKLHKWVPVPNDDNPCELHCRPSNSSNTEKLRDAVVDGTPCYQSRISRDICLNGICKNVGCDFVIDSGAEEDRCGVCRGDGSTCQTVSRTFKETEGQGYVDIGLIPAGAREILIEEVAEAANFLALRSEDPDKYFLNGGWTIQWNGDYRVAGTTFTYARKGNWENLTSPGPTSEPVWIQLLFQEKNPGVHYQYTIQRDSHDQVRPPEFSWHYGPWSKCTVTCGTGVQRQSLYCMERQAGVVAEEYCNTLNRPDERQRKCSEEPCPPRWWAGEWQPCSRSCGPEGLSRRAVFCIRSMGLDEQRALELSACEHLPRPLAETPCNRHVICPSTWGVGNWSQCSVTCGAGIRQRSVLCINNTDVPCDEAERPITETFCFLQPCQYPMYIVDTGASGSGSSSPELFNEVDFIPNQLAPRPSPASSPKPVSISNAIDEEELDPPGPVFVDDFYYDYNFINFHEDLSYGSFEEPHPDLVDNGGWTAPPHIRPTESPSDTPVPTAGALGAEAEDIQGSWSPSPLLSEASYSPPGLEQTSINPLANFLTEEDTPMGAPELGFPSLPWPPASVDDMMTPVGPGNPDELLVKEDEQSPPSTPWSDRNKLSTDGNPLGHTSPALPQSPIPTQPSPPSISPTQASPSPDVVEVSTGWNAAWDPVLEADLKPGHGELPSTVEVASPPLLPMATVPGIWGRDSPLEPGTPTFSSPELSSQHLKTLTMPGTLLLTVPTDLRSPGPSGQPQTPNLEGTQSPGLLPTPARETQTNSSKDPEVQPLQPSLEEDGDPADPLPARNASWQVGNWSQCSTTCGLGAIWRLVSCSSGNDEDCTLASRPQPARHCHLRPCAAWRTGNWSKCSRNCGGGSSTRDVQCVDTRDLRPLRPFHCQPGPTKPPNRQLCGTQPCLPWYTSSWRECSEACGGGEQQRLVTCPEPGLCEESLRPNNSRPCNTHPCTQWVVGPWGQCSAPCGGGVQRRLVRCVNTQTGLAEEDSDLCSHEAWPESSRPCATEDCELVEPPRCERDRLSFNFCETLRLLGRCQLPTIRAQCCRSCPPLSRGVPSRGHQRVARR
The test is described as follows: TMT10 TAILS N-terminomics, HUVEC experiment (process replicates, trypsin/AspN digest). The class given is cell-based, human. The settings on record: HUVEC TAILS HC; log fold change of N-terminal peptide, Ad-mADAMTS7 WT over Luc. Put shortly: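 Full-length mouse ADAMTS7 (WT or E373Q mutant, C-terminal 3xFLAG) or luciferase was transduced via adenovirus, 50 MOI, into HCA-SMC (SMC1, SMC2) or HUVEC. SMC1: pooled media, technical triplicates 400 ug; SMC2: process triplicates 300 ug; HUVEC: process triplicates 200 ug, bFGF2 10 ng/ml.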
“COL18A1_1505 (LQPPVVQLHDSNPYPR; listed as Homo sapiens)”: the logFC.mWT.over.Luc was found to be 3.05.

“LTBP2_79 (VAGLQPVER; listed as Homo sapiens)”: the logFC.mWT.over.Luc worked out at 1.13.

In turn, “LTBP2_250 (SAAGEGTLAR; listed as Homo sapiens)” showed a logFC.mWT.over.Luc of 1.84.

Substance “LTBP2_502 (LVENSVETRPPPWLPASPGHSLW; listed as Homo sapiens)” showed a logFC.mWT.over.Luc of 2.47.

With “LTBP3_208 (FLVPLGPGQISA; listed as Homo sapiens)”, the logFC.mWT.over.Luc amounted to 1.54.

In turn, “MAP4_815 (AVASTGPSSR; listed as Homo sapiens)” returned a logFC.mWT.over.Luc of 2.87.

As for “MAP4_816 (VASTGPSSR; listed as Homo sapiens)”, the logFC.mWT.over.Luc amounted to 2.13.

“NID1_360 (FHQQHPQVI; listed as Homo sapiens)” yielded a logFC.mWT.over.Luc of 1.48.

For “NID2_291 (HSSVPLGR; listed as Homo sapiens)”, the logFC.mWT.over.Luc is reported as 2.80.

For “NUCB1_317 (FLASTQR; listed as Homo sapiens)”, the logFC.mWT.over.Luc was 2.71.

For “NUCB1_389 (LQQAVLHMEQR; listed as Homo sapiens)”, the logFC.mWT.over.Luc was determined as 1.32.

With “SERBP1_56 (QAAAQTNSNAAGKQLR; listed as Homo sapiens)”, the logFC.mWT.over.Luc was 1.23.

For “SPOCK1_27 (LAGGAGPNHGNFL; listed as Homo sapiens)”, the logFC.mWT.over.Luc worked out at 0.90.

Substance “SRGN_59 (LLPGESNKIPR; listed as Homo sapiens)” had a logFC.mWT.over.Luc of 1.04.

The substance “THBS2_290 (LSENLKR; listed as Homo sapiens)” gave a logFC.mWT.over.Luc of 5.05.

The record behind these values is patent US20240368668A1, “SUBSTRATES AND BIOMARKERS OF ADAMTS7” (The Broad Institute, Inc., priority 2021, published 2024).
